Laboratory results published in US20170152290A1.

Target: sLRP1-CIV (cluster IV of LRP1 fused to the constant region of a human IgG1) (human)
Test: SPR (Biacore X), sLRP1-CIV immobilised on CM5 chip, peptide at 20 µM; RU observed at 160 s

Binder	RU (at 160 s) [RU]
SSNIVIGIGDKALKINWSKKK (modifications not checked) [peptide HDIII3CLC-]	38.2
CSNIVIGIGDKALKINACKKK (modifications not checked) [peptide HDIII3CLW-]	192
